# Experimental data: patent US20060105444A1, “O-fucosyltransferase” (Genentech, Inc., priority 1997, published 2006)
# Target: T1, purified O-fucosyltransferase (Cricetulus griseus, UniProt P83337)
# T1 construct: endogenous in cells; host or cells: CHO cell paste (enzyme); E. coli periplasm (EGF substrates)
# Test: Acceptor substrate specificity: fucosyltransferase assay with Factor IX EGF domain mutants
# Type: biochemical, CHO cells (Chinese hamster ovary)
# Settings: for Fucose (cpm): human Factor IX EGF domain or mutant as acceptor substrate, 14C-fucose incorporated; for acceptor substrate for the O-fucosyltransferase (in words): recombinant Factor IX EGF domains, assay counts and LC/MS of fucosylation product
# Protocol: A reaction volume of 50 μl contained the following ingredient: 0.1 M imidazole-HCl, pH 7.0; 50 mM MnCl2; 0.1 mM GDP-^14C-Fucose (4000-8000 cpm/nmol), 20 μM recombinant human Factor VII EGF-1 domain and about 0.01-0.1 milliunit of enzyme activity. The mixture was incubated at 37° C. for 10-20 minutes. The reaction was stopped by placing the mixture on ice, then diluting with 950 μl of 0.25 M EDTA, pH 8.0. Separation of incorporated fucose from GDP-fucose, fucose-phosphate and free fucose was carried out by passing the solution through a C18 cartridge (Alltech, Extract Clean, C18, 200 mg). The cartridge was washed with 5 ml of H2O, and the product was then eluted with 3 ml of 80% acetonitrile containing 0.052% TFA. The eluant was mixed with 10 ml Aquasol II (NEN/Du Pont) and counted using a liquid scintillation counter.
# As described previously, all the O-fucosylation on EGF domains occur within the putative consensus sequence CXXGGSC (SEQ ID NO: 1) or alternatively CXXGGTC (SEQ ID NO: 21). […] Three mutants were constructed using alanine to replace either of the two or both glycine residues and tested as acceptor substrate for the purified O-fucosyltransferase. Assays using the four recombinant EGF domains all gave positive counts. It appeared that the two glycine residues were not absolutely required for activity.
# In order to determine if all the different forms of the mutants served as substrate for the O-fucosyltransferase, reverse-phase HPLC online with electrospray mass spectrometry was used to analyze the product of the fucosylation reaction. Shown in FIG. 8 is the experiment using the mutant ala-ala. Analysis of the other tested mutants gave similar results. […] The enzyme O-fucosyltransferase required its substrate in order to have the proper three dimensional structure in order to function properly.
Substance,Fucose (cpm),acceptor substrate for the O-fucosyltransferase (in words)
"EGF (wild type): Recombinant human Factor IX EGF domain, wild type, sequence -CLNGGSC- (SEQ ID NO: 20) (KRYNSGKLEEFVQGNLERECMEEKCSFEEAREVFENTERTTEFHHHHHHGSA)",12062 cpm,better substrate than the mutants
"EGF.AA: Recombinant human Factor IX EGF domain mutant, sequence -CLNAASC- (SEQ ID NO: 17), both glycines replaced by alanine",1818 cpm,only one of the four differently folded species served as an acceptor substrate
"EGF.AG: Recombinant human Factor IX EGF domain mutant, sequence -CLNAGSC- (SEQ ID NO: 18) (KRYNSGKLEEFVQGNLERECMEEKCSFEEAREVFENTERTTEFHHHHHHGSA)",4585 cpm,–
